For orientation: Kd means the concentration at which binding is half-saturated.

The target of this assay is α-cardiac actin (F-actin) (Sus scrofa). Description: co-sedimentation; high-speed cosedimentation; F-actin (0–40 µM) with 5 µM C0–C2 or 30 µM C2; 25 mM HEPES pH 7.3, 25 mM KCl, 5 mM MgCl2, 1 mM EGTA; 30 min at room temperature; 55,000 rpm 30 min; SDS-PAGE densitometry of supernatant and pellet; quadratic fit.

Take “MyBPC C0–C2 D389V (from UniProt Q14896 1-452) (domain or fragment)”: the Kd worked out at 2800 nM.

“MyBPC C0–C2 wt (cardiac myosin-binding protein C, N-terminal fragment with subdomains C0 to C2) (from UniProt Q14896 1-452) (domain or fragment)”: the Kd stood at 3200 nM.

In turn, “MyBPC C2 wt (isolated IgI-like C2 domain of cardiac myosin-binding protein C) (from UniProt Q14896 362-452) (domain or fragment)” registered a percent of C2 in the pellet fraction of less than 2%.

Values taken from publication PMC8584774.
